T1: human CDCP1 on tumor cells (human, UniProt Q9H5V8 30-836)
T1 construct: whole, on cells; cell line is named under assay or readout
T1 sequence (looked up): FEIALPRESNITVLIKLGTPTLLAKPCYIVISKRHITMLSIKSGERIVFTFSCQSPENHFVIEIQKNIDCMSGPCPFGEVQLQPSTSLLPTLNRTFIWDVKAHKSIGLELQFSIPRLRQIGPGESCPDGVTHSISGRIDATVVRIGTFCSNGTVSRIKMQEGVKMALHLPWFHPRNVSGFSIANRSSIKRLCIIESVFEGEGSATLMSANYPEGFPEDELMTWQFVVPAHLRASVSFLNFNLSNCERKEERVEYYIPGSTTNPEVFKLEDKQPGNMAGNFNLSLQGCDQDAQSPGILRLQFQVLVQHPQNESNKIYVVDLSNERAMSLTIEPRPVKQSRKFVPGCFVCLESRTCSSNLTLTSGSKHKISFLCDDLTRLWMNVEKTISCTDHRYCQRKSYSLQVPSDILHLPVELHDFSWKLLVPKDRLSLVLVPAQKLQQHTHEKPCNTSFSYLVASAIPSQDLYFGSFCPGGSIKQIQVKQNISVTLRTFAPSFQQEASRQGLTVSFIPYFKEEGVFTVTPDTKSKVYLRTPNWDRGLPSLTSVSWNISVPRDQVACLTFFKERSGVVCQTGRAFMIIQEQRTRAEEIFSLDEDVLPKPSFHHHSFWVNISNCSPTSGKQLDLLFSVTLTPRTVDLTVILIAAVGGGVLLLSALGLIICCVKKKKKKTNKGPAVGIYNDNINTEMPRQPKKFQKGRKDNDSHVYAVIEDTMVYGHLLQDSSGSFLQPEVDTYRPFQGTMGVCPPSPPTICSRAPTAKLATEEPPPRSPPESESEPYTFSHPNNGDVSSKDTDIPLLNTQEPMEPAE

T2: HuCDCP1-C (human, UniProt Q9H5V8 30-667)
T2 construct: range 30-667; expressed in HEK-293T, purified by Fc/his tag; also called human CDCP1-C; full-length extracellular domain of human CDCP1; not shown: Fc or his tag
T2 sequence (looked up): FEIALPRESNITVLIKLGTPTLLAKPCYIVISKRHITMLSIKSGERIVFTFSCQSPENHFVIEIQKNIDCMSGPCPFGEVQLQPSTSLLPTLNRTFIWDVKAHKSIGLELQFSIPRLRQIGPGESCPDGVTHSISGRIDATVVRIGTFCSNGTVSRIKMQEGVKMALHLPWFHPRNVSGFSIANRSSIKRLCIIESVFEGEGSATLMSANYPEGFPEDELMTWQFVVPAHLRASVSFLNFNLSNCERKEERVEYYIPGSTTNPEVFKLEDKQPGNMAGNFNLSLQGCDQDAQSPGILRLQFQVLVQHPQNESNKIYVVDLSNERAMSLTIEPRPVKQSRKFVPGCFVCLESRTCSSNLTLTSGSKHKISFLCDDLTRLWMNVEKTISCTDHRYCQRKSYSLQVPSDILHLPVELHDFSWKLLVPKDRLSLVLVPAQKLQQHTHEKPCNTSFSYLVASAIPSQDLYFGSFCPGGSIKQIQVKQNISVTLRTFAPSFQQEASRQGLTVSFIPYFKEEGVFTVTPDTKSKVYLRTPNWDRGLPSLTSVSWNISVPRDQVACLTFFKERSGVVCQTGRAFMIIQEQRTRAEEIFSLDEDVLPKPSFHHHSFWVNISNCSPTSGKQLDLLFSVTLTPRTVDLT

B1: 10D2 (antibody, V domains shown)
VH: EVQLQQSGPELKKPGETVKISCKASGYTFTDYSMHWVKQAPGKGLKWMGWINTETGQPTYADDFKGRFAFSLETSASSAYLQINNLKNEDTATYFCTRTFYYDYVGDYWGQGTTVTVSS
VL: DIVMTQSHKFMSTSVGDRVSITCKASQDVSTAVAWYRQKPGQSPKLLIYWASTRHTGVPDRLTGSGSGTDFALTINSVQAEDLALYYCQQHSSTPYTFGGGTKLEIK
notes: murine hybridoma mAb
B2: 5B8 (antibody, V domains shown)
VH: EVQLKESGGGLVQPGGSLRISCATSGLTFTHYHMSWVRQPPGKAPEWLAIIRNKAYGYTTDYSASVRGRFTISRDDSQSILYLQMNTLRAEDSATYYCVREGGYGYDGTFAYWGQGTTVTVSS
VL: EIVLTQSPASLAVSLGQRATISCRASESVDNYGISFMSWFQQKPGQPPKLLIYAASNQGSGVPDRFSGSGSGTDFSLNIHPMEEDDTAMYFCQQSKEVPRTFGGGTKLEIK
notes: murine hybridoma mAb
B3: 8C9 (antibody, V domains shown)
VH: B2 VH with A90P
VL: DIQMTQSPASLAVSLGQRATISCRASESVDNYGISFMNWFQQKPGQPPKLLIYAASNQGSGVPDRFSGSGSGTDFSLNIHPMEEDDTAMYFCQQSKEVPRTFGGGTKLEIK
notes: murine hybridoma mAb
B4: 8E5 (antibody, V domains shown)
VH: EVQLKESGPELKKPGETVKISCKASGYTLTDFSMHWLKQAPGKGLKWMGWINTETGAPTYADDFKGRFALSLDTSANTAYLQINNLKNEDTATYFCSRGRDYDPHFDYWGQGTTVTVSS
VL: EIVLTQSPATLSVTPGDRVSLSCRASQSISDFLHWYQQRSHESPRLLIKYASQSISGIPSRFGGSGSGSDFTLNINTVEPEDVGMYYCQSAHSFPYTFGGGTKLEIK
notes: murine hybridoma mAb; also called 8ES
B5: 12E6 (antibody, V domains shown)
VH: EVQLKESGPGILQPSQTLSLTCSFSGFSLSTSGMGVGWIRQPSGKGLEWLAHIWWDDVKLYNPALKSRLTISKETSNNQVFLKIASVDAADTATYYCARIDHGYGSNYWDFDVWGAGTTVTVSS
VL: DIVMTQAAPSVPVTPGGSVSISCRSTKSLLHSDGKTYLYWFLQRPGQSPQLLIYRMSNLASGVPDRFSGSGSGTAFTLRISRVEAEDVGVYYCMQHLEYPFTFGSGTKLEIK
notes: murine hybridoma mAb
B6: G10F6 (antibody, V domains shown)
VH: EVKLVESGPGILQPSQTLSLTCSFSGFSLSTSGMGVSWVRQPSGKGLEWLAHIYWDDDKRYNPSLKGRLTISKDTPRNQVFLEITSVDTTDTATYYCARVPGNWDEDAMDYWGQGTTVTVSS
VL: DIQMTQSPLSLPVSLGDQASISCRSSQNIVHTNGNTYLEWYLQKVGQSPKLLIYKVSNRFSGVPDRFSGSGSGTDFTLKISRVEAEDLGVYYCFQGSHVPYTFGGGTKLEIK
notes: murine hybridoma mAb
B7: 3C11 (antibody, V domains shown)
VH: EVQLQQSGTVLARPGASVKMSCKASGYNFISYWLHWIKQRPGQGLEWIGGIYPGNTDTTYNQKFKGKAKVTAVTSATTAYMELSSLTNEDSAVYYCIRYDYDRGMDYWGQGTTVTVSS
VL: DIQMTQSPSSFSVSLGDRVTITCRASEDIYYRLAWYQQKPGNAPRLLISGATALETGVPSRFSGSGSGKDYTLSITSLQTEDVATYYCQHYWNIPWTFGGGTKLEIK
notes: murine hybridoma mAb
B8: 3B12H5 (antibody, V domains shown)
VH: EVQLQQSGTVLARPGASVKMSCKASGYSFTIYWVHWVKQRPGQGLEWIGAVYPGNDDTSYNQNFKGKAKLTAVTSATTAYMELSSLTIDDSAVYYCTRHTYDEVFDYWGQGTTVTVSS
VL: B7 VL with Q3V, F11L, R24K, A51G, A53N, T56A, V58I, T85I, I94T
notes: murine hybridoma mAb; also called 3B12HS
B9: 6A7 (antibody, V domains shown)
VH: EVQLKESGAELVRPGASVKVSCKASGYSFTSYWMNWVKQRPGQGLEWIGMIHPSDSETKLNQKFRDRASLTVDKSSSTAYMQLSSPTSEDSAVYYCTINYESFYYAMDYWGQGTTVTVSS
VL: DIVMTQSPASLAVSLGQRATISCRASKSVSTSGYSYMHWYQQKPGQPPKLLLYLASNLESGVPARFSGSGSGADFTLNIHPVEEEDAATYYCLHSRELPYTFGGGTKLEIK
notes: murine hybridoma mAb
B10: 1CP-117 (antibody, human IgG1, kappa, V domains shown)
VH: QVQLVQSGSELKKPGASVKVSCKASGYTLTDFSMHWVRQAPGQGLEWMGWINTETGAPTYADDFKGRFVLSLDTSVSTAYLQISSLKAEDTAVYYCSRGRDYDPHFDYWGQGTLVTVSS
VL: EIVLTQSPATLSLSPGERATLSCRASQSISDFLHWYQQKPGQSPRLLIKYASQSISGIPARFSGSGSGSDFTLTISSVEPEDFAVYYCQSAHSFPYTFGQGTKLEIKR
notes: humanized 8E5, human IgG1 kappa
B11: 1CP-121 (antibody, human IgG1, kappa, V domains shown)
VH: B10 VH
VL: B10 VL with P40S
notes: as for B10
B12: 3F1A11 (antibody, V domains shown)
VH: EVKLVESGPGLVKPSQSLSLTCTVTGYSITSDYAWNWIRQFPGNKLEWMGYISYNTYTSYNPSLKSRISVTRDTSKNQFFLQLKSVTIEDTATYFCAGGDYYGTGAVDYWGQGTTVTVSS
VL: EIVLTQSPLSLPVSLGDQASISCRSRQTLVHTNGNTYLDWYLQKPGQSPKLLIYKVSIRFSGVPDRFSGSRSGTDFTLKISRVEAEDLGIYYCFQGSHVPWTFGGGTKLEIK
notes: murine hybridoma mAb
B13: 14A10C5 (antibody, V domains shown)
VH: EVKLVESGPGILQPSQTLSLTCSFSGFSLSTSGMGVSWIRQPSGKGLEWLAHIYWDDEKRYNPSLKSRLTISKDTSSNQVFLKITSVDTADTATYYCAREGSANWEAMDYWGQGTTVTVSS
VL: B6 VL with Q3V, S7A, P8A, H31Y, N35I, V45P, G73A, G96S, Y101W
notes: murine hybridoma mAb; also called 14A10CS

Substitutions are numbered along the chain they refer to. Some results are limits rather than exact numbers.

The target in the first experiment is T1, human CDCP1 on tumor cells. In words: flow cytometry, MDA-MB-231 cells. On the procedure: Flow cytometry was used to detect the binding capacity of antibody to tumor cells. […] 2.0×10⁴ tumor cells were added per well, respectively, and 50 μL (PBS+2% FBS) were added, and after blocking at room temperature with an Fe blocker (Human TruStain FcX™, Biolegend, 422302) for 10 mins, an anti-CDCP1 murine monoclonal antibody at a final concentration of 200 nM was added. The obtained mixture was subjected to a 3-fold serial dilution across 8 concentration points, and incubated at 4° C. for 30 mins, and then incubated with a secondary antibody (PE anti-human IgG Fc Antibody, Biolegend, 410708), detection was performed using a flow cytometer.
In general terms: A flow cytometer gives signals particle by particle.
On to B1, for which the EC50 (in general, the concentration giving half of the maximal effect) is 0.49 nM.
B2 yielded an EC50 of 0.93 nM. Compared with the last molecule, the EC50 is about 1.9-fold higher.
B3 showed a concentration giving a half-maximal response (EC50) of 0.47 nM. Against the preceding molecule, the EC50 is about 2-fold lower.
On to B4, for which a half-maximal effect (EC50) was put at 0.67 nM.
B5 gave a concentration for a half-maximal effect (EC50) of 85.5 nM.
The same measure, in the same setting: the figure for B6 is 0.19 nM.
Turning to B7, the response was half-maximal at 0.27 nM (EC50). The EC50 values of the last two molecules are within 1.5-fold of each other.
Turning to B8, the response was half-maximal at 0.47 nM (EC50).
The same measure, in the same setting: the figure for B9 is 1.72 nM.

Another experiment deals with T1, human CDCP1 on tumor cells. In words: flow cytometry, MDA-MB-231 cells. The source holds these as a separate data set. On the procedure: Referring to the method of Example 4, MDA-MB-231 cells were taken and subjected to digestion with 5 mM EDTA, 2×10⁴ tumor cells were added respectively per well, and 50 μL (PBS+2% FBS) were added; after blocking at room temperature with Fc blocker for 10 mins, an anti-CDCP1 humanized antibody at a final concentration of 200 nM was added. The obtained mixture was subjected to a 3-fold serial dilution across 8 concentration points, incubated at 4° C. for 30 mins, centrifuged and washed, and then a secondary antibody (PE anti-human IgG Fc Antibody, Biolegend, 410708) was added, then detection was performed using a flow cytometer. Geo-MFI (geometric mean fluorescence signal value) was used as the preliminary signal of antibody-cell binding, curve fitting was performed using graphpad, and the binding capacity of antibody to cells was calculated.
Molecule B10 displayed an EC50 of 1.3 nM.
B11 gave an EC50 of 1.37 nM.

In another experiment the target is T2, HuCDCP1-C. In words: SPR (Caterra), antigen immobilized. On the procedure: The humanized anti-CDCP1 antibodies obtained from Example 11 were subjected to gene cloning, constructed into pTT5 expression vector for a small amount of expression in CHO cells (Expi-CHOS: Gibco A29127), and purified with an Fc affinity column (AT Protein A Diamond Plus. No. AA402312). Antibody purity was analyzed by HPLC and determined by Nanodrop. High-throughput affinity assay was carried out for a small amount of antibodies by Caterra.
B10: binding was put at a Kd of 0.259 nM; the off-rate (koff) (usually the first-order rate constant of dissociation) is 3.93e-05 s⁻¹; the kon (as a rule, the rate constant with which the complex forms) came out at 152000 M⁻¹ s⁻¹.
For B11 the same measures were not above 0.0675 nM, not above 1e-05 s⁻¹ and 148000 M⁻¹ s⁻¹.

In the next experiment the target is T2, HuCDCP1-C. In words: SPR (Caterra or Biacore), antigen immobilized. For orientation: Surface plasmon resonance follows binding to a sensor surface in real time, without labels.
In the case of B1, it took 0.705 nM to reach a half-maximal effect (EC50).
B12 displayed a half-maximal effective concentration (EC50) of 37.9 nM.
The same measure, in the same setting: then B2, with 1.19 nM; and B3, with 1.72 nM; and B4, with 0.105 nM.
Same read-out and setting: then B5, with 0.0634 nM; and B6, with 5.63 nM; and B13, with 2.02 nM.
The same measure, in the same setting: the figure for B7 is 3.96 nM; for B8 it is 0.723 nM.
B9 came in with an EC50 of 9.65 nM. This EC50 is about 13-fold higher than that of the molecule before.

The record behind these values is patent publication US20260250410A1 (SICHUAN HUIYU PHARMACEUTICAL, published 2026).
